Measurements reported in paper PMC7022249, “Biochemical and Structural Characterization of OXA-405, an OXA-48 Variant with Extended-Spectrum β-Lactamase Activity” (Microorganisms, 2019).

How the values were obtained:
OXA-405 β-lactamase [1] = molecular target: T1, OXA-405 β-lactamase (Serratia marcescens, UniProt A0A0F6P2I5); assay: IC50 with purified enzyme, […] benzylpenicillin as reporter substrate, […] min preincubation; format: biochemical
T1 construct: gene blaOXA-405

OXA-405 β-lactamase [2] = molecular target: T1, OXA-405 β-lactamase; assay: steady-state hydrolysis kinetics (Km) with purified enzyme; format: biochemical
[3] = system: CC(=O)OCC1=C(C(=O)O)N2C(=O)[C@@H](NC(=O)Cc3cccs3)[C@H]2SC1; assay: as above; format: biochemical, Serratia marcescens
[4] = system: CC1(C)S[C@@H]2[C@H](NC(=O)Cc3ccccc3)C(=O)N2[C@H]1C(=O)O; assay: as above; format: biochemical, Serratia marcescens
[5] = system: CC1(C)S[C@@H]2[C@H](NC(=O)[C@H](N)c3ccccc3)C(=O)N2[C@H]1C(=O)O; assay: as above; format: biochemical, Serratia marcescens
[6] = system: CO/N=C(\C(=O)N[C@@H]1C(=O)N2C(C(=O)O)=C(COC(C)=O)CS[C@H]12)c1csc(N)n1; assay: as above; format: biochemical, Serratia marcescens
[7] = system: C[C@@H](O)[C@H]1C(=O)N2C(C(=O)O)=C(SCCN=CN)C[C@H]12; assay: as above; format: biochemical, Serratia marcescens
[8] = system: C[C@@H](O)[C@H]1C(=O)N2C(C(=O)O)=C(S[C@@H]3CN[C@H](C(=O)Nc4cccc(C(=O)O)c4)C3)[C@H](C)[C@H]12; assay: as above; format: biochemical, Serratia marcescens
[9] = system: Cc1onc(-c2ccccc2)c1C(=O)N[C@@H]1C(=O)N2[C@@H]1SC(C)(C)[C@@H]2C(=O)O; assay: as above; format: biochemical, Serratia marcescens

T1 sequence (A0A0F6P2I5 23-261 limits assumed): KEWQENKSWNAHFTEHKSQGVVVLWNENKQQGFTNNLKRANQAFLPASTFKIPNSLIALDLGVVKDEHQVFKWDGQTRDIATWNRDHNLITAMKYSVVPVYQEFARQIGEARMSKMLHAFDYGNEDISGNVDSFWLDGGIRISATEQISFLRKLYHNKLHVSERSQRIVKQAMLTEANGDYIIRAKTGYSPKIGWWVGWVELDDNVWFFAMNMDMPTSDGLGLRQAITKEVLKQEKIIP

Compound `C[C@]1(Cn2ccnn2)[C@H](C(=O)O)N2C(=O)C[C@H]2S1(=O)=O` [Tazobactam] has an IC50 (OXA-405 β-lactamase [1]) of 1.8 µM.

In the case of `O=C(O)[C@H]1/C(=C/CO)O[C@@H]2CC(=O)N21` [Clavulanic acid], the IC50 (OXA-405 β-lactamase [1]) is reported as 6 µM.

`CC(C)(O/N=C(\C(=O)N[C@@H]1C(=O)N2C(C(=O)[O-])=C(C[n+]3ccccc3)CS[C@H]12)c1csc(N)n1)C(=O)O` [Ceftazidime] was tested, and the Km (OXA-405 β-lactamase [2]) was over 1000 µM.

With “OXA-405 β-lactamase (Serratia marcescens)” the Km [3] was 18 µM, the kcat [3] was 8 s⁻¹ and the kcat/Km [3] was 444000 M⁻¹ s⁻¹. It also gave a Km [4] of 18 µM, a kcat [4] of 12 s⁻¹ and a kcat/Km [4] of 667000 M⁻¹ s⁻¹. The Km [5] was 212 µM, the kcat [5] was 29 s⁻¹ and the kcat/Km [5] was 137000 M⁻¹ s⁻¹. The Km [6] was 369 µM, the kcat [6] was 9.7 s⁻¹ and the kcat/Km [6] was 26000 M⁻¹ s⁻¹. For the same compound, the Km [7] was 532 µM, the kcat [7] was 0.1 s⁻¹ and the kcat/Km [7] was 200 M⁻¹ s⁻¹. For the same compound, the Km [8] was 88 µM, the kcat [8] was 0.04 s⁻¹ and the kcat/Km [8] was 400 M⁻¹ s⁻¹. It also gave a Km [9] of 69 µM, a kcat [9] of 19 s⁻¹ and a kcat/Km [9] of 275000 M⁻¹ s⁻¹.
